Numbering of substitutions follows the chain as printed.
B1: MSL10-AM9 (antibody, V domains shown)
VH: EVQLVESGGGLVQPGRSLRLSCAASGFTFDDYALHWVRQAPGKGLEWVSGIGWDDDMIDYADSVKGRFTISRDNAKNSLYLQMNSLRVEDTALYYCAGNNRGYGGLDVWGQGTTVTVSS
VL: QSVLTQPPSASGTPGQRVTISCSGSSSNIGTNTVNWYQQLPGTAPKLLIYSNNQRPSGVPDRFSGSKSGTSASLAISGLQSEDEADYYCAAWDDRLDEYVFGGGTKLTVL
B2: MSL10-AM1 (antibody, V domains shown)
VH: B1 VH with G52N, D54E, D55G, M57D, N100S
VL: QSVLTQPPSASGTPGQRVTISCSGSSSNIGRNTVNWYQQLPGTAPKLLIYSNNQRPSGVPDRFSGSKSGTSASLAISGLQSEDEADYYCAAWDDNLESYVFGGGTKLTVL
B3: MSL10-AM4 (antibody, V domains shown)
VH: B1 VH with D30E
VL: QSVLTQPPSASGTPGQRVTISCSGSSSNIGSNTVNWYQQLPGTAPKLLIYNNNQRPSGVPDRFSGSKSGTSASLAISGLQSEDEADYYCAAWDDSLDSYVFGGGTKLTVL
B4: MSL10-AM7 (antibody, V domains shown)
VH: B1 VH with D30E, D54N, M57E, A75S
VL: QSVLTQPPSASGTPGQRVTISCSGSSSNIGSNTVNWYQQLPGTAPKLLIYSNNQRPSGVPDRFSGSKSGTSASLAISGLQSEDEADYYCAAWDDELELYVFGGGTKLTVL
B5: MSL10-AM8 (antibody, V domains shown)
VH: B1 VH with D30E, D55R, M57F, N100K, R101I
VL: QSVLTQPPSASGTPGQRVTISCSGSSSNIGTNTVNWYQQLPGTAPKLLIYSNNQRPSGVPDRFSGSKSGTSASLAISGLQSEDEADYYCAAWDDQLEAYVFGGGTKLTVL
B6: MSL10-AM11 (antibody, V domains shown)
VH: B1 VH with G52S, D54H, D55G, M57F
VL: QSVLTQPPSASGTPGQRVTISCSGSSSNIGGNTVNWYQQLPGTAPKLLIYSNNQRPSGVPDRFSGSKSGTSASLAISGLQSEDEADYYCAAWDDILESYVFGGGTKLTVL
B7: MSL10-AM3 (antibody, V domains shown)
VH: B1 VH with D55E
VL: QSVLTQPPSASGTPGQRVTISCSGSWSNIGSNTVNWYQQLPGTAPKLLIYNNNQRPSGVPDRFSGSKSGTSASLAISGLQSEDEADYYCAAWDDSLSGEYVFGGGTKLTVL
B8: MSL10-AM2 (antibody, V domains shown)
VH: B1 VH with D54E, N100S
VL: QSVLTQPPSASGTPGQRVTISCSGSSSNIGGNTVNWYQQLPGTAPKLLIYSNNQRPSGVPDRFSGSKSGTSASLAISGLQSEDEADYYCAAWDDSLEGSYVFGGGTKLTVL
B9: MSL10-AM5 (antibody, V domains shown)
VH: B1 VH with G52S, D54H, D55G, M57F
VL: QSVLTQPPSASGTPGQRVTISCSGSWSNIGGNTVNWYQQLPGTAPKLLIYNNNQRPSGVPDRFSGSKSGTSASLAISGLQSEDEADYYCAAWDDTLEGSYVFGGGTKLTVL
B10: MSL10-AM6 (antibody, V domains shown)
VH: B1 VH with D31Q, G52N, D55G, M57Y, N100I
VL: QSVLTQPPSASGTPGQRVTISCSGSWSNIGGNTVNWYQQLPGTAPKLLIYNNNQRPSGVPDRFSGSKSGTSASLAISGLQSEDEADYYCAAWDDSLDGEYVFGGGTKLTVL
B11: MSL10-AM10 (antibody, V domains shown)
VH: B1 VH with D30S, G52S, D54Y, D55G, M57D, N100I
VL: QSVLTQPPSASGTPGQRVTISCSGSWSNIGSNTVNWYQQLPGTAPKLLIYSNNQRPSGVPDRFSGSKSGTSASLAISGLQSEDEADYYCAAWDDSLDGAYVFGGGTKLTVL
B12: MSL10-AM2.2 (antibody, V domains shown)
VH: B1 VH with D54E, N100S
VL: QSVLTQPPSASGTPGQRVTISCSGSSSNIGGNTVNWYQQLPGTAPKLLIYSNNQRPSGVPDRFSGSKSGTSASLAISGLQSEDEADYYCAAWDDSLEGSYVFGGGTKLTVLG
B13: MSL10-AM3.2 (antibody, V domains shown)
VH: B1 VH with D55E
VL: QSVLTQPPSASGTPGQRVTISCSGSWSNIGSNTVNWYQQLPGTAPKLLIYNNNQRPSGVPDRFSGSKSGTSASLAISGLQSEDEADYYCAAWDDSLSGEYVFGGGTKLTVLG
B14: AE10-6-AM8 (antibody, V domains shown)
VH: EVQLVQSGAEVKKPGASVKVSCKVSGYTLSELSIHWVRQAPGKGLEWMGGFDPEDGETIYAQKFQGRVTMTEDTSTDTAYMELSSLRSEDTAVYYCATDSAGYWYKFFQHWGQGTLVTVSS
VL: QAVVTQEPSLTVSPGGTVTLTCGSSTGAVTIDHYPYWFQQKPGQAPRTLISDTDDKHSWTPARFSGSLLGGKAALTLSGAQPEDEAEYYCLLDYGGSFVFGGGTKLTVL
notes: converted into IgG

Each binder was assayed against T1, recombinant mouse sclerostin (mouse, UniProt Q99P68 24-211) (assay: SPR).
T1 construct: also called ms sclerostin; murine sclerostin
T1 sequence (looked up): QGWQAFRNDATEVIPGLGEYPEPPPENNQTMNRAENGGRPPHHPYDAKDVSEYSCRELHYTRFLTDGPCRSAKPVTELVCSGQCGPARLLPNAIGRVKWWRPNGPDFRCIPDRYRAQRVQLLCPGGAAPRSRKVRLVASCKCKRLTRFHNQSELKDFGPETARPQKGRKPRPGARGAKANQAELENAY

Binder	binding result
B1	no binding
B2	no binding
B3	no binding
B4	no binding
B5	no binding
B6	no binding
B7	no binding
B8	no binding
B9	no binding
B10	no binding
B11	no binding
B12	no binding
B13	no binding

The binders below were run against T2, recombinant rat sclerostin (rat, UniProt Q99P67 24-213, limits assumed) (assay: SPR).
T2 sequence (looked up): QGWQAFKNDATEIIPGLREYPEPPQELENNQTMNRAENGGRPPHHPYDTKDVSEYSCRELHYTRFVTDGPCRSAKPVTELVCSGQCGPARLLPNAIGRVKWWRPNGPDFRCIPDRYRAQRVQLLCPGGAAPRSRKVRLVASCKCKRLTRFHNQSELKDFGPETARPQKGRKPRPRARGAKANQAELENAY

Binder	binding result
B1	no binding
B2	no binding
B3	no binding
B4	no binding
B5	no binding
B6	no binding
B7	no binding
B8	no binding
B9	no binding
B10	no binding
B11	no binding
B12	no binding
B13	no binding

The binders below were run against T3, recombinant human sclerostin (human, UniProt Q9BQB4 24-213) (assay: SPR).
T3 construct: biotinylated in the ELISAs; also called hu sclerostin; hu scl
T3 sequence: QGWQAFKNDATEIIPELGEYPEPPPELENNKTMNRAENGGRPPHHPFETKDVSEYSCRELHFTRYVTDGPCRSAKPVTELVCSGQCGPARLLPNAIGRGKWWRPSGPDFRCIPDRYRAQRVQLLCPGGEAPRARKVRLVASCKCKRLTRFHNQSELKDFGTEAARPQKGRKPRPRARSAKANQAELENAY
Method: (§1) Approximately 10,000 RU (or 3000 RU when CM3 chip was used) of goat anti-mouse or anti-human IgG (Fcγ) fragment specific polyclonal antibody (Pierce Biotechnology Inc, Rockford, Ill.) diluted in 10 mM sodium acetate (pH 4.5) was directly immobilized across a CM5 (or CM3) research grade biosensor chip using a standard amine coupling kit according to manufacturer's instructions and procedures at 15 μg/ml. Unreacted moieties on the biosensor surface were blocked with ethanolamine. Modified carboxymethyl dextran surface in flowcells 2, 3 and 4 were used as a reaction surface. Modified carboxymethyl dextran in flow cell 1 was used as the reference surface. Biaevaluation T100 software version 2.0.2, GE Healthcare Life Sciences was used to simultaneously fit association and dissociation phases of all injections (using 1:1 fit analysis with local Rmax). Purified antibodies were diluted in running buffer for capture across goat anti-mouse or anti-human IgG specific reaction surfaces. Antibodies to be captured as a ligand (1 μg/ml) were injected over reaction matrices at a flow rate of 10 μl/minute. The association and dissociation rate constants, kon (unit M-1 s-1) and koff (unit s-1) were determined under a continuous flow rate of 50 μl/minute. […] At the end of each cycle the surfaces were regenerated with 10 s injection of 50 mM NaOH or/and by 10 s injection of 10 mM Glycine pH1.5 at a flow rate of 100 μl/min. Instrument appropriate Biaevaluation software, GE Healthcare Life Sciences was used to simultaneously fit association and dissociation constants as well as KD (using 1:1 global fit analysis with local Rₘₐₓ). Binding was recorded as a function of time and kinetic rate constants are calculated. In this assay, on-rates as fast as 10⁷ M⁻¹ s⁻¹ and off-rates as slow as 10⁻⁶ s⁻¹ can be measured.

Binder	Kd	koff	kon
B1	0.054 nM	5.2e-06 s⁻¹	96000 M⁻¹ s⁻¹
B2	0.3 nM	1.6e-05 s⁻¹	52000 M⁻¹ s⁻¹
B3	5.3 nM	0.00073 s⁻¹	140000 M⁻¹ s⁻¹
B4	0.42 nM	7.2e-05 s⁻¹	170000 M⁻¹ s⁻¹
B5	0.73 nM	7.7e-05 s⁻¹	110000 M⁻¹ s⁻¹
B6	0.85 nM	7.4e-05 s⁻¹	88000 M⁻¹ s⁻¹
B7	0.9 nM	7.6e-05 s⁻¹	84000 M⁻¹ s⁻¹
B8	0.065 nM	7.6e-06 s⁻¹	120000 M⁻¹ s⁻¹
B9	0.97 nM	7.4e-05 s⁻¹	77000 M⁻¹ s⁻¹
B10	3.4 nM	0.00055 s⁻¹	170000 M⁻¹ s⁻¹
B11	0.29 nM	3.9e-05 s⁻¹	130000 M⁻¹ s⁻¹
B12	0.33 nM	0.00011 s⁻¹	340000 M⁻¹ s⁻¹
B13	0.9 nM	0.00025 s⁻¹	280000 M⁻¹ s⁻¹

The binders below were run against T4, recombinant cynomolgus monkey sclerostin (cynomolgus monkey) (assay: SPR).
T4 construct: also called cyno sclerostin; Cyno sclerostin
Method: as §1

Binder	Kd	koff	kon
B2	0.42 nM	2.3e-05 s⁻¹	54000 M⁻¹ s⁻¹
B3	5.6 nM	0.00073 s⁻¹	130000 M⁻¹ s⁻¹
B7	1.3 nM	0.0001 s⁻¹	77000 M⁻¹ s⁻¹
B8	0.77 nM	8.8e-05 s⁻¹	110000 M⁻¹ s⁻¹
B9	1.1 nM	8.7e-05 s⁻¹	82000 M⁻¹ s⁻¹
B12	0.11 nM	6.7e-05 s⁻¹	600000 M⁻¹ s⁻¹
B13	0.36 nM	0.0001 s⁻¹	300000 M⁻¹ s⁻¹

Molecular target: T1, recombinant mouse sclerostin
Assay: SPR
Remark: another data set of the same source
Method: as §1, with “The binding of antibodies or anti-sclerostin-TNF DVD to purified recombinant human, cynomolgus monkey (cyno), rat and mouse sclerostin and TNFα was determined by surface plasmon resonance-based measurements with a Biacore T100 or T200 instruments (GE Healthcare Life Sciences, Piscataway, N.J., USA) using running HBS-EP+ (10 mM HEPES [pH 7.4], 150 mM NaCl, 3 mM EDTA, and 0.005% surfactant P20) containing additional 150 mM NaCl, and/or 10 mg/ml carboxymethyl dextran, 0.1 mg/ml BSA at 25° C. All chemicals were obtained from GE Healthcare Life Sciences, Piscataway, N.J., USA or otherwise from a different source as described in the text. Approximately” for “Approximately”, “μl/min.” for “μl/min. Instrument appropriate Biaevaluation software, GE Healthcare Life Sciences was used to simultaneously fit association and dissociation constants as well as KD (using 1:1 global fit analysis with local Rₘₐₓ). Binding was recorded as a function of time and kinetic rate constants are calculated. In this assay, on-rates as fast as 10⁷ M⁻¹ s⁻¹ and off-rates as slow as 10⁻⁶ s⁻¹ can be measured.”

Binder	Kd	koff	kon
B14	0.0074 nM	8.2e-05 s⁻¹	1.1e+07 M⁻¹ s⁻¹

Molecular target: T2, recombinant rat sclerostin
Assay: SPR
Remark: another data set of the same source
Method: as §1, with “The binding of antibodies or anti-sclerostin-TNF DVD to purified recombinant human, cynomolgus monkey (cyno), rat and mouse sclerostin and TNFα was determined by surface plasmon resonance-based measurements with a Biacore T100 or T200 instruments (GE Healthcare Life Sciences, Piscataway, N.J., USA) using running HBS-EP+ (10 mM HEPES [pH 7.4], 150 mM NaCl, 3 mM EDTA, and 0.005% surfactant P20) containing additional 150 mM NaCl, and/or 10 mg/ml carboxymethyl dextran, 0.1 mg/ml BSA at 25° C. All chemicals were obtained from GE Healthcare Life Sciences, Piscataway, N.J., USA or otherwise from a different source as described in the text. Approximately” for “Approximately”, “μl/min.” for “μl/min. Instrument appropriate Biaevaluation software, GE Healthcare Life Sciences was used to simultaneously fit association and dissociation constants as well as KD (using 1:1 global fit analysis with local Rₘₐₓ). Binding was recorded as a function of time and kinetic rate constants are calculated. In this assay, on-rates as fast as 10⁷ M⁻¹ s⁻¹ and off-rates as slow as 10⁻⁶ s⁻¹ can be measured.”

Binder	Kd	koff	kon
B14	0.034 nM	5.9e-05 s⁻¹	1.8e+06 M⁻¹ s⁻¹

Molecular target: T3, recombinant human sclerostin
Assay: SPR
Remark: another data set of the same source
Method: as §1, with “The binding of antibodies or anti-sclerostin-TNF DVD to purified recombinant human, cynomolgus monkey (cyno), rat and mouse sclerostin and TNFα was determined by surface plasmon resonance-based measurements with a Biacore T100 or T200 instruments (GE Healthcare Life Sciences, Piscataway, N.J., USA) using running HBS-EP+ (10 mM HEPES [pH 7.4], 150 mM NaCl, 3 mM EDTA, and 0.005% surfactant P20) containing additional 150 mM NaCl, and/or 10 mg/ml carboxymethyl dextran, 0.1 mg/ml BSA at 25° C. All chemicals were obtained from GE Healthcare Life Sciences, Piscataway, N.J., USA or otherwise from a different source as described in the text. Approximately” for “Approximately”, “μl/min.” for “μl/min. Instrument appropriate Biaevaluation software, GE Healthcare Life Sciences was used to simultaneously fit association and dissociation constants as well as KD (using 1:1 global fit analysis with local Rₘₐₓ). Binding was recorded as a function of time and kinetic rate constants are calculated. In this assay, on-rates as fast as 10⁷ M⁻¹ s⁻¹ and off-rates as slow as 10⁻⁶ s⁻¹ can be measured.”

Binder	Kd	koff	kon
B14	0.0013 nM	9.7e-06 s⁻¹	7.4e+06 M⁻¹ s⁻¹

Molecular target: T4, recombinant cynomolgus monkey sclerostin
Assay: SPR
Remark: another data set of the same source
Method: as §1, with “The binding of antibodies or anti-sclerostin-TNF DVD to purified recombinant human, cynomolgus monkey (cyno), rat and mouse sclerostin and TNFα was determined by surface plasmon resonance-based measurements with a Biacore T100 or T200 instruments (GE Healthcare Life Sciences, Piscataway, N.J., USA) using running HBS-EP+ (10 mM HEPES [pH 7.4], 150 mM NaCl, 3 mM EDTA, and 0.005% surfactant P20) containing additional 150 mM NaCl, and/or 10 mg/ml carboxymethyl dextran, 0.1 mg/ml BSA at 25° C. All chemicals were obtained from GE Healthcare Life Sciences, Piscataway, N.J., USA or otherwise from a different source as described in the text. Approximately” for “Approximately”, “μl/min.” for “μl/min. Instrument appropriate Biaevaluation software, GE Healthcare Life Sciences was used to simultaneously fit association and dissociation constants as well as KD (using 1:1 global fit analysis with local Rₘₐₓ). Binding was recorded as a function of time and kinetic rate constants are calculated. In this assay, on-rates as fast as 10⁷ M⁻¹ s⁻¹ and off-rates as slow as 10⁻⁶ s⁻¹ can be measured.”

Binder	Kd	koff	kon
B14	0.00039 nM	3e-06 s⁻¹	7.7e+06 M⁻¹ s⁻¹

From US20150266977A1 (AbbVie / Abbott, published 2015)
